Assay: protease stability score; higher = more stable; yeast display proteolysis, trypsin and chymotrypsin;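 note: relative to predicted unfolded state with 0 unfolded-like and 1 meaning tenfold more protease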

For “EEEEWLVKIAIRILIETFRTGDFHLWEELADPNTRLRIGNFEFHGREEVLHSLIEMRIHSVHIEDHKVIDGRLHVDSRLLGTFNGQHINRETRLISLKINGVWFIKSFEFV”, the protease stability score was 0.648.

“EEEHELTELLSRLWVHAIRTGDEDTLKELMDPNTRFEINGKEHIGRERLTDAFRELRVHRLHIEHIEIQGDKVLMETRSDIEINGVRRETETRIILHVVNGRIKEVRVHIK” gave a protease stability score of 1.84.

For “EEEHKFITDIVRLFQELLRTGDFTLLRRMIDPHARIDINGVENHGWEKTARHIWELGMTRESEVRIRDVKVYDGRVEIDIEVEIHNDYNGRKIVVRHEIILFVIKFNGRWNLEQIHIK”, the protease stability score was 1.65.

“EEEKDWSTEVLRLFLEMMATGDWEFLARFLDPHVKLEVDGREFHGREEVSRSLEEHFRKFGADHVEIRLRRIREVDGRLHVDGRLILHIGDKTIERDMQVHSYKIDGQWSIHEVTHK” showed a protease stability score of 1.45.

“EEEKEHAREIVDILWELHETGDEEIFRTLADPDVRLLIGDKKIVGREEIWRKLKEVHKHWRLKSYHTRHLHVQGEKVTIDGVINGVYDGVDTSIDVNIQIFTFNGRFRSMREHYS” gave a protease stability score of 0.317.

With “EEEKEHLTHMAKLFHDLTQTGDEHLFNHLADPHVKIDVHIGDKDLHFHGREEFLWWILEIIEQWRIEFDLRDTIPVNGKVHVKTDIKINVNGREHRIETRLHLVIVNGKLKESEIRVS” the protease stability score was 1.69.

Work on “EEEKEIAEELIRRIRESLRTGDEDLKHKLADPNVRHIFNGRNNHGREEMLRTLEELIKQFGVENIDIELHDWDHVDGRLHIHVRVRYGDYMMHLRIEAEKVNGRWQSETVELR” yielded a protease stability score of 1.23.

For “EEEKESHQWILEVYMHTVRTGDPRMIKELLDPNVKLEAENREVHGREHVLKILWTKLHEMRIEHVTVEDVEVQGNKVRVHNEVHYTFDGQRDILKTEVIATKFDGRWHFKSLREK”, the protease stability score was 0.222.

With “EEEKETERIASEHHLEHLRTGDEETYLRNFDPHVRLDIDGREFHGWEFFRHFLRRMGFKHVRHIQIHHSELFNGRLFFDGTIRFRVGDKEDTFKVEVVDVKFNGRWHIQEFRVK” the protease stability score was 1.43.

Sequence “EEEKHLLRRIVRELTESERTGDEDHLDKLLDPHARTNVNGVDFHGREDWRKWTEEFFRRVDHIEFRIEDIKIINGVAIVDTRITMHIGDKHIHFELEIKNVIIDGRVKELRIKFK” has a protease stability score of 0.91.

Work on “EEEKKETEHWIETFYRIINTGDEETWSKMADPDMRLEVLIDGKKLELHGRDAFEDFVSKMGFDHVHIHDMEVIGEKAHIHTELRYGDKHIRFEIQLVVVNGRYKSVTIRRK” yielded a protease stability score of 1.75.

“EEEKKNRAHQFLKAVERGDPEELRKQFDPNAHARVGDKRYHGMEEWAKDVMRRVRELRMSIKRLSVDVQGNDVKVNMNLVINRNGKPKEFREVWYFKIHNGHFVELHVQEEP” showed a protease stability score of 1.24.

“EEEKRISDRSLEHLVRSWWTGDEQLYTELADPNVRVEIGDKEYHGREDARHALRRELEHIRIKHIVYRRFEFVGEYIHVDTRMLVDVNGVHILRTMHILEFKFDGRWHLTSLIIR” gave a protease stability score of 1.21.

Sequence “EEELELAKKIADTFNHDMETGDEKSRWDLFDPNVRIDWNGKDLHGWEQEEEELERLGITKVELEIKRKEVQGDKVILDGTVRFNGRSTRVHVHIRVVNGRLKSIKIIIR” has a protease stability score of 0.345.

Work on “EEEQEDSEWATKLFIEVLETGDEHTSEHLADPDTRVEFNGKILHGREEWNKIVRKVKNARIHFDHIRVQGDKINVDTTVEVDGKRMKFHIISRKFNGVWFLQSIHIK” yielded a protease stability score of 2.07.

In the case of “EEEREIHQRHWEERLRAHRTGDEETLERQADPDVRIDFNGVELHGREVAVRFLLEMRLHDVDWRRIHTFDGRVDVDVIVDGEYNGRRYRSTFTLVIIKVNGQWLVHSMEFK”, the protease stability score was 0.244.

With “EEERERAKDVFELLWDIEKTGDEDTFTKLADPNVRTHVGDKHFHGRELVAKWLVDVLRELRVHDIEIKSETVINGRNIVDGVLDGHINGRTVKMTTEILILVINGRIREIDIRIL” the protease stability score was 0.825.

“EEERETDHRLTEKLRRIIRTGDEEEWSKLVDPNTRVIYGDKQDHGWEAWVRILKDLGAKHIDIEHVDIVNGRVEIHSHLTIGDKHVIIHHRIVHINGKLTEIYIEIHHK” gave a protease stability score of 0.694.

With “EEERKEVKFAFDIWSELFLTGDEEDIHHLADPDVRLDINGKNIHGMELIHKIILHDILEWRLEVRVKHIEVQGDKAEIQMELKFRYNGREKHYKFRIIYKKFDGQWRYESIHMR” the protease stability score was 1.71.

In the case of “EEERRDAEIALTVIEHHWETGDEKDLDEMLDPDVRVIINGQRYHGREWLSRFREDLGATYHDVHVDDIRIYDGRVEMDFHVRGKVGDKERDTRVRIFMIKFDGRWVVEQITLE”, the protease stability score was 1.95.

In the case of “EEESKVASDIIELHMRFLLTGNWEMFLRLADPHVRIETEDHRDHGRDWYEKLFRHIRSHVEDMRIKHVELQGDKLHAHGSVRLLIVDGDKYIEVEVDFRFIFDKVNGKWILSSIHLK”, the protease stability score was 2.29.

“EEHHEITKDLIELLERTMKTGDEDILRKMADPHTKVEQGDKRIIGRDEFQEEWVEWMRRVDHAEVRLTDFREFPNHLELHGTLDVNINGRDIRIEIQIIVSKFDGRWSLHSISFR” showed a protease stability score of 0.107.

Work on “EEHYEDMHHAMELFIHAVRTGDEHTLSRMLDPNTRIRIDGVHLIGREQAVKWWLELYKKFPNMRLNLKRIDIFDGKLHVDLETNINGVRLDSHLLISKVDGQWRVDSIQHE” yielded a protease stability score of 1.5.

Work on “EEIHKHLKELFVRWMKELVTGNEDSFKDLFDPHTRIHMHIGDKEIHAHGRKHLEDMILRFKGLRVEFRVEDSTAIGDKAHADFHLIIHVDGKNITTREEVRISVIDGKIREVHHHIN” yielded a protease stability score of 1.36.

Work on “EEIIDLMERLAYLWHHWLTTGNEEMLSKFLDPHARIVIGDKIYHGREKIHEELRRHLERFDHIEFRLRHTEVQGNKIHNHGELKLRIGNYTVHYETRFELQIYDGKIHEFQVKID” yielded a protease stability score of 1.73.

In the case of “EEKEEIDRREMKRFMKAFETGDEHELKELFDPHARVHVGDKVHIGRHNFLRWFKEWIEKYKNVRIELDDVEYQGEKLHLDLTVEINGRRTTQDLVIYKIDGRWLFKNIHVH”, the protease stability score was 0.607.

In the case of “EELERDMDHWIELVIKLRKTGDWRQLAEMVDPNVRVDVNGVQIHGRESIEELLKRLGIDNVEVSLRDKDRQGEKMIVDMELHYNGKRHETKYIALKINGKWIFETITIR”, the protease stability score was 1.38.

For “EELERDSKEVAERLLWDTLTGDEDLLLHLMDPHVRHIVNGVKLHGREALERAIEEHLSHLGIDHIRIRHIDFRIINGKMDVHIHGESIYNGRVVHMIIIFISTKVNGKWVLEELSIEIR”, the protease stability score was 1.85.

In the case of “EEMERDIKHAVEVMIRFWETGDERLLTELADPDTKSKIDGRTFHGREDIHKLFHSVIEKVKNIRIEFKRISVQGDKAKIDGTNNFNGREIKTDITLWKFDGRWILESIEIG”, the protease stability score was 1.43.

“EENREITEKIMRHWLTLFLTGDFERLIELMDPEVKFLIDGRELHGWEVWRKLMTLTIRRYKNIRIHITSIDVFENHTHVETYENVNGVHIDTRLNLFLVNGRIQSIEMDTK” showed a protease stability score of 1.7.

Work on “EERERLAEELARIWLEVLETGDWKMLHDLADPNVRNVVGDKEQHGREEMSRFYTEWHEHIRIHRIEIESIDIQGNKIQIHGRIDMEINGKRRDQRLEIIIIVINGRIKRLEVRLH” yielded a protease stability score of 0.948.

In the case of “EERKESIRLAVEMIEHVFKTGNPEDEMSLFDPHAKLDVGDKHFHGREEYSRWSEEVRRRYGADHIEFRIEDVHSQGDFVDIHGKEVYIYNGVTFVIDVHFHVLKVNGRWLIKHIRIN”, the protease stability score was 1.3.

“EERNKFAEDFSRIDTESHRTGDEHSLLRLFDPHARIHQGDFEMHGWEEFSRIMRHEIERYKNATFEVRVDRVDVQGDKMISDGRLHIHQGDKIREYRIFIIVTKVNGQWHIEEVHIV” gave a protease stability score of 1.11.

With “EESEKSAEDATRLIIHMLETGDERLMKHLMDPDVRIEIGEYISIGRENVEELFREWRSKLGIKHIEVKRVRIEVQGNKVHIEMDTRLIVGDKEEETILRVDVVKINGRWYIKSMRLEIR” the protease stability score was 1.95.

For “EESEKSAKLLLDWLFRHLITGNEETFQHFADPNARVDQGEKDSHGMEWVRLVLEEIRIDNMHVRDFRIFEGRLIIDTEIRIKYNGVEMTIKVTVVSEKVNGKWRMKSMHVN”, the protease stability score was 1.04.

“EETREASRIALEIFIRDLVTGNEDSLERLADPDTKFIINGRNYHGMEFLREEIRKWLERFKNIRVEVKVHHQRVFENHIEMDGRLDFNYDGQKEILEVRLFMVKFNGKWYIHSIEIR” showed a protease stability score of 2.24.

“EEVEEEVERATRRHVVDLLTGNWDKLIHEMDPNTYLLINGVKFHGREVYEILLREFIRKYKNARYHITVRDYHVQGDKAIIDMEIRIRIGDKEHHIDSELILRKVDGKWFMQEERII” showed a protease stability score of 2.65.

In the case of “EEWEKAIKFAVKLYKEIMETGDEDMQSHLFDPNVRISVGNKERHGMEEVTKIMTEWRLDDHHVNHVELQGNKVSSDGEINGTFDGRRHRVRIVLIILKVNGVWRIEEVRVI”, the protease stability score was 0.162.

With “EEWRDHVHHLLELMLHLWRTGDEEIFHRLLDPDTLVRVNGVEFHGRDAMHHVLHRLIEELGINHYRESDFDIQGNKAFHHGELRVNGKTVLEEQRYVIFNGKIKEIRITLH” the protease stability score was 0.271.

Work on “EHEDELKHFIHELWKYASDTGDFRTELLLLDPNAKVQVGDKEYHGREWLEFELRRLGVDRIIKEIHIHHEHEQGDKLEIRGELHLLFNGKRIVIDVKLFFLKIDGKWFNRHIIIK” yielded a protease stability score of 1.75.

“EHEEEHTRHFMHFFIEMVETGDETALHKLLDPNAKYIQGDKHLVGRELMVEWMEELVRRFKNIRVHITEIERQGDKARVDEKWDINGKKIKTELIITKIDGQWRIHEIRVK” gave a protease stability score of 1.23.

“EHLIEELREMTERIVETILTGDEKHLADLADPNTRSHTHIGDKHYRFHGMDLIYELLHQVKNMRLHLRHTDASFVGNKVYVRLHIDLIFNGRDIHFTIHIIIDKYNGKWFIHHIELIFN” gave a protease stability score of 1.31.

“ETEEQYAEELARLYIEIWETGDEETLHKLADPDVRNDVDGKQLHGRESMIEFWRKLGISNVHFILHRLHVKTQGDFIDIHIDGQLDINGKVTRVEHRLHVEKYNGRWLLKEIYIKRD” gave a protease stability score of 1.72.

“GDEEHHATEALERLIHSFETGDEELMTKLVDPHVRFEVNGKLFIGREDVMRWLKERLDRFDHHRVDFKHIRVVGDKVDIHLVLEVDFNGQHFSHDVRVRIIKINGRWRLTHMSIH” showed a protease stability score of 2.3.

“GDLEHMLESMARLWTHEVLTGDEDTLRRLADPNVRFESHVNGQRVEFHGMEEVAEWMRKHLEEIRSRIELRTIEPQGNKAHVDGTTHLHYNGRTVIKKTHVHLSIVDGKIQRVELELR” gave a protease stability score of -0.051.

Sequence “GDSEKDAERAIDIFLDTVRTGDERLIHELLDPTTILQVGDKQFHGREEADKWWHELLRKLGHTNIEMEVRDMKVQGDKVHLDTELRFNGRSTRIHVVIIKVNGRWLIEHIEIK” has a protease stability score of 1.23.

“GEDEHLAKRLLDLLIELFHTGDWDFISMLADPHVKLNVNGVQYHGRHDVTKLVHDEAEELRVHIQIHKVDWVGDKVHVDTRLVVNIDGQEHRTKTHIDMIVVNGRLNSMRIEIR” showed a protease stability score of 1.19.

“GEDKELARKAVEEELESLLTGDEDRLKELIDPHTKVFINGREEIGMEALEDVLKKLGFKHIKVHHFDIRVQGDKVKNDLRGIFHVNGKDIDTQLIIISLKYNGQWFNHSLEWRTR” gave a protease stability score of 0.595.

“GEEDEEFSKLMDETVKSLQTGDETHLKKLLDPNVILHVGDKEFHGRERAIDWYRHLRIHDMTIHHWEIQGDKAHVDGKLHVEVDGQHYDAKLHIVLEKINGQWYITSIHYK” showed a protease stability score of 2.06.

For “GEEHELTERAIEHFVDIWKTGDEDSLEENIDPHARIDFNGQQLHGREEMYRFMHKVNRQIKGIRLSFKYIDLRIYGDKVIVHNDGVVRVGDKVHDEQTKLEMRKVDGRWLFKSVTVFVL”, the protease stability score was 1.05.
